# According to patent EP4491631A1:
# Substitutions are numbered along the chain they refer to.
# B1: z2-XVT458 (antibody, IgG1, V domains shown)
# VH: QVQLVQSGAEVKKPGASVKVSCKASGYTFTNFYIHWVRQAPGQGLEWMGSIYPNYGDTAYNQKFKDRVTMTVDTSTSTAYMELRSLRSDDTAVYYCARGYSYAMDYWGQGTTVTVSS
# VL: DIQMTQSPSSVSASVGDRVTITCSASQGISGDLNWYQQKPGKAPKLLIYHTSSLHSGVPSRFSGSGSGTDFTLTISSLQPEDFATYYCQYYSKDLLTFGGGTKLEIK
# B2: XVT458-z2-m6 (antibody, V domains shown)
# VH: B1 VH with D57I
# VL: B1 VL with S53Q, G57D, Y90G
# B3: XVT458-z2-m4 (antibody, V domains shown)
# VH: B1 VH with S50R, D57I
# VL: B1 VL with L54R, Y90G
# B4: XVT458-z2-m5 (antibody, V domains shown)
# VH: B1 VH with S50R, D57I
# VL: B1 VL with S30Y, L54R, Y90A
# B5: XVT458-z2-m1 (antibody, V domains shown)
# VH: B1 VH with D57F
# VL: B1 VL with S30W, S53Q, G57D, Y90G
# B6: XVT458-z2-m2 (antibody, V domains shown)
# VH: B1 VH with S50R, D57F
# VL: B1 VL with S30Y, Y90A
# B7: XVT458-z2-m3 (antibody, V domains shown)
# VH: B1 VH with S50R, D57I
# VL: B1 VL with S53Q, L54R, G57D, Y90G
# Target: cynomolgus PD-1 expressed on cells (cynomolgus monkey) (UniProt B0LAJ3)
# Assay: flow cytometry, CHO-S Cyno-PD-1
# Chain of cynomolgus PD-1 expressed on cells (cynomolgus monkey) (B0LAJ3 entry or part of it limits assumed): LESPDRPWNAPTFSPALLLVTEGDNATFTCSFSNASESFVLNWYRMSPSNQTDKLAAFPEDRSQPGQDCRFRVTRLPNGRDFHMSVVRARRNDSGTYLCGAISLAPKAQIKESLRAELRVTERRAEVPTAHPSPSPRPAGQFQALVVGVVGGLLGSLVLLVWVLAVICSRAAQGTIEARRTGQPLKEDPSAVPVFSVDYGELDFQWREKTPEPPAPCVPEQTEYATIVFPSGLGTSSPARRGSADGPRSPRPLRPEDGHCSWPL
row,Max MFI,Binder
1,109 MFI,B1
2,59 MFI,B2
3,258 MFI,B3
4,335 MFI,B4
5,70 MFI,B5
6,367 MFI,B6
7,124 MFI,B7
